Ends that are not written are not given here.
Columns and labels:
[1] = target: T1, histidine-tagged mouse EphA2 Fc fusion protein (R&D Systems) (mouse, UniProt Q03145 26-535, limits assumed); assay: SPR (BIAcore 3000), EphA2 Fc coupled to chip, equilibrium binding
T1 construct: Bought; not shown: Fc portion and histidine tag

EphB4 Fc fusion protein = target: T2, EphB4 Fc fusion protein; assay: immobilized peptide capturing Eph receptor Fc (methods of Example 2)
T2 construct: Eph receptor Fc fusion
T2 sequence (P54761 16-539): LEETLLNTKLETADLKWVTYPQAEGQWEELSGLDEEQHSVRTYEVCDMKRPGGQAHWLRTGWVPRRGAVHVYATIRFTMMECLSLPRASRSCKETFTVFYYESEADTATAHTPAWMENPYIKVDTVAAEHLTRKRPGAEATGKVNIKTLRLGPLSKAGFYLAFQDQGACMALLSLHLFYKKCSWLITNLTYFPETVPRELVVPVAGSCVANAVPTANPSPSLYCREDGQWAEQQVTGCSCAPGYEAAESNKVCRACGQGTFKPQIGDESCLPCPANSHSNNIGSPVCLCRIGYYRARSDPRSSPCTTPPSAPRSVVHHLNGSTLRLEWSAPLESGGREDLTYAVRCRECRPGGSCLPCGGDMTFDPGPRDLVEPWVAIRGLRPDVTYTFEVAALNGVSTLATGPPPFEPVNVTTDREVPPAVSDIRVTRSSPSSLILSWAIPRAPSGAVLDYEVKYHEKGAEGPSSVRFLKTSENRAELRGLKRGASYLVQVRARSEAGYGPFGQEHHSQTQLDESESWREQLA
Source text: Bound Eph receptors were detected with anti-human Fc antibody conjugated to alkaline phosphatase (AP) (Promega, Madison, Wis.). […] Substrates were 2,2′-azino-bis(3-ethylbenzthiazoline-6-sulfonic acid) for horseradish peroxidase and p-nitrophenyl phosphate for AP.

T1 sequence (Q03145 26-535 limits assumed): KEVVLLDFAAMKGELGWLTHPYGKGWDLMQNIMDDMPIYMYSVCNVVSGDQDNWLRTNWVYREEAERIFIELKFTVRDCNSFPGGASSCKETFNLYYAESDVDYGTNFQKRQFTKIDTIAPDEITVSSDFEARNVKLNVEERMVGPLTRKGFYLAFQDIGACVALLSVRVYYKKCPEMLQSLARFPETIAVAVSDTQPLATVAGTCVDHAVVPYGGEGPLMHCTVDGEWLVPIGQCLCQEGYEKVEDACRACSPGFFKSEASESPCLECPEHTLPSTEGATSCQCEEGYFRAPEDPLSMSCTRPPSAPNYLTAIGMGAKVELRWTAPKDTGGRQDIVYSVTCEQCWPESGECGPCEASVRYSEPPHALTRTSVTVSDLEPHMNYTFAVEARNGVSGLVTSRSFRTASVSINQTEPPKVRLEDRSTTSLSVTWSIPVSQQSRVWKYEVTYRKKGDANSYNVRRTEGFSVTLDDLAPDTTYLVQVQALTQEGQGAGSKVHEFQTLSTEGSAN

| Binder | Kd [1] | fold more EphB4 bound compared to other EphB family receptors (EphB4 Fc fusion protein) |
| --- | --- | --- |
| SWLAYPGAVSYRGSGSK (also: biotinylated, position not given here) [SWL peptide (synthetic, biotinylated)] | 678 nM | – |
| DALNDWLLFRPWGSGSK (also: biotinylated, position not given here) [DAL synthetic peptide (biotinylated)] | – | 4 fold |

Reference: patent US20040180823A1 (BURNHAM INSTITUTE, published 2004)
